From patent publication US20190225669A1 (ACCELERON PHARMA, published 2019)
Where two headings read alike, the source gives them in different places.

B3: ALK3-Fc homodimer (Fc fusion, UniProt P36894 24-152, looked up, not shown: a dimerising Fc or GST)
chain: QNLDSMLHGTGMKSDSDQKKSENGVTLAPEDTLPFLKCYCSGHCPDDAINNTCITNGHCFAIIEEDDQGETTLASGCMKYEGSDFQCKDSPKAQLRRTIECCRTNLCNQYLQPTLPPVVIGPFFDGSIR
notes: extracellular domain

Assays:
[1] = molecular target: T1, BMP9 (UniProt Q9UK05 320-429); assay: Biacore SPR; kinetics indeterminate (transient)
T1 construct: also called GDF2
T1 sequence (looked up): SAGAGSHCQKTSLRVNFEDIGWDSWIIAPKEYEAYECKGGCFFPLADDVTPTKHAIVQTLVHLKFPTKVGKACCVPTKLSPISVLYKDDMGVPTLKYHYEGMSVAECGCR
Description: (§1) Ligands were injected and allowed to flow over the captured receptor protein.

[2] = molecular target: T2, activin B (UniProt P09529 293-407); assay: Biacore SPR
T2 sequence (looked up): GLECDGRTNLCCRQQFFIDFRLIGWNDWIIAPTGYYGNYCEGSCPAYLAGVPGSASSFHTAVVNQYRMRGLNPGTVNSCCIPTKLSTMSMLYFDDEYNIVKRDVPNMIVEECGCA
Description: as §1

[3] = molecular target: T3, GDF8 (UniProt O14793 267-375); assay: Biacore SPR
T3 construct: also called myostatin
T3 sequence (looked up): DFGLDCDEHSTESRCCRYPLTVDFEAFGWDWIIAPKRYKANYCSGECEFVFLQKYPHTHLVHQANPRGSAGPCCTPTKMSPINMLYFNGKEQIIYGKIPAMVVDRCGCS
Description: as §1

[4] = molecular target: T4, GDF11 (UniProt O95390 299-407); assay: Biacore SPR
T4 construct: also called BMP11
T4 sequence (looked up): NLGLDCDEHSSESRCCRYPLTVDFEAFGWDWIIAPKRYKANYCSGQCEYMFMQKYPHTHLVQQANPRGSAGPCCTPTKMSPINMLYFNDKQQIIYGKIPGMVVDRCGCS
Description: as §1

[5] = molecular target: T5, activin A (UniProt P08476 311-426); assay: Biacore SPR
T5 sequence (looked up): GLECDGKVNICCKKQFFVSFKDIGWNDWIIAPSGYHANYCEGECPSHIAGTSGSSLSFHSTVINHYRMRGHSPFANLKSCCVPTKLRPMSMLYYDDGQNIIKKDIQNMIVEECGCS
Description: as §1

[6] = molecular target: T6, BMP6 (UniProt P22004 382-513, limits assumed); assay: Biacore SPR
T6 sequence (looked up): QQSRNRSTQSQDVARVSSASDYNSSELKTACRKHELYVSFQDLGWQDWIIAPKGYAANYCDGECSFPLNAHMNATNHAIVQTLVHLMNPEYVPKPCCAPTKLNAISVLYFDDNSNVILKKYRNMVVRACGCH
Description: as §1

[7] = molecular target: T7, GDF3 (UniProt Q9NR23 251-364); assay: Biacore SPR
T7 sequence (looked up): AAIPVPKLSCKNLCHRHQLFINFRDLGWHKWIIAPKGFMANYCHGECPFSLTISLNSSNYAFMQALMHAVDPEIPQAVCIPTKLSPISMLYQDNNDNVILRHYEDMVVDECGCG
Description: as §1

[8] = molecular target: T8, BMP10 (UniProt O95393 317-424); assay: Biacore SPR
T8 sequence (looked up): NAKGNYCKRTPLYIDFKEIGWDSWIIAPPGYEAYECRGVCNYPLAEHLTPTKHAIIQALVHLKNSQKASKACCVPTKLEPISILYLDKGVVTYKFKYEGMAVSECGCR
Description: as §1

[9] = molecular target: B3; assay: Biacore SPR
Description: as §1

[10] = molecular target: B3; assay: Biacore SPR; remark: listed apart in the source
Description: as §1

[11] = molecular target: T9, BMP5 (UniProt P22003 317-454, limits assumed); assay: Biacore SPR
T9 sequence (looked up): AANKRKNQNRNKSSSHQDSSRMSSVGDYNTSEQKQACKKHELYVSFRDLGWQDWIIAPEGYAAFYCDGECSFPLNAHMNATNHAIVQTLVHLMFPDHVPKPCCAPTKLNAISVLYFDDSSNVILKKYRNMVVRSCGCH
Description: as §1

[12] = molecular target: T6, BMP6; assay: Biacore SPR; remark: listed apart in the source
Description: as §1

[13] = molecular target: T9, BMP5; assay: Biacore SPR; remark: listed apart in the source
Description: as §1

[14] = molecular target: T6, BMP6; assay: Biacore SPR; remark: listed apart in the source
Description: as §1

B1: ActRIIB-Fc:ALK5-Fc heterodimer (Fc fusion)
chain 1: GRGEAETRECIYYNANWELERTNQSGLERCEGEQDKRLHCYASWRNSSGTIELVKKGCWLDDFNCYDRQECVATEENPQVYFCCCEGNFCNERFTHLPEAGGPEVTYEPPPTAPTGGGTHTCPPCPAPELLGGPSVFLFPPKPKDTLMISRTPEVTCVVVDVSHEDPEVKFNWYVDGVEVHNAKTKPREEQYNSTYRVVSVLTVLHQDWLNGKEYKCKVSNKALPAPIEKTISKAKGQPREPQVYTLPPSRKEMTKNQVSLTCLVKGFYPSDIAVEWESNGQPENNYKTTPPVLKSDGSFFLYSKLTVDKSRWQQGNVFSCSVMHEALHNHYTQKSLSLSPGK
chain 2: ALLPGATALQCFCHLCTKDNFTCVTDGLCFVSVTETTDKVIHNSMCIAEIDLIPRDRPFVCAPSSKTGSVTTTYCCNQDHCNKIELPTTVKSSPGLGPVETGGGTHTCPPCPAPELLGGPSVFLFPPKPKDTLMISRTPEVTCVVVDVSHEDPEVKFNWYVDGVEVHNAKTKPREEQYNSTYRVVSVLTVLHQDWLNGKEYKCKVSNKALPAPIEKTISKAKGQPREPQVYTLPPSREEMTKNQVSLTCLVKGFYPSDIAVEWESNGQPENNYDTTPPVLDSDGSFFLYSDLTVDKSRWQQGNVFSCSVMHEALHNHYTQKSLSLSPG
notes: C-terminal Lys optional; also called ActRIIB-Fc:ALK5-Fc heterodimeric complex
B1 was tested, and the Kd [1] was greater than 6.6 nM, the Kd [2] was 0.079 nM and the koff [2] was 0.00031 s⁻¹. It also gave a kon [2] of 3.9e+06 M⁻¹ s⁻¹, a Kd [3] of 0.49 nM and a koff [3] of 0.00052 s⁻¹. For the same binder, the kon [3] was 1.1e+06 M⁻¹ s⁻¹, the Kd [4] was 0.2 nM and the koff [4] was 0.00046 s⁻¹. It also gave a kon [4] of 2.3e+06 M⁻¹ s⁻¹, a Kd [5] of 0.046 nM and a koff [5] of 0.0016 s⁻¹. The kon [5] was 3.6e+07 M⁻¹ s⁻¹, the Kd [6] was 1.7 nM and the koff [6] was 0.015 s⁻¹. For the same binder, the kon [6] was 9.3e+06 M⁻¹ s⁻¹, the Kd [7] was 8.5 nM and the koff [7] was 0.0097 s⁻¹. The kon [7] was 1.1e+06 M⁻¹ s⁻¹, the Kd [8] was 0.15 nM and the koff [8] was 0.0022 s⁻¹. For the same binder, the kon [8] was 2.3e+07 M⁻¹ s⁻¹.

B2: GDF5 (ligand, UniProt P43026 382-501, looked up)
chain: APLATRQGKRPSKNLKARCSRKALHVNFKDMGWDDWIIAPLEYEAFHCEGLCEFPLRSHLEPTNHAVIQTLMNSMDPESTPPTCCVPTRLSPISILFIDSANNVVYKQYEDMVVESCGCR
notes: also called BMP14
With B2 the Kd [9] was 22 nM, the koff [9] was 0.011 s⁻¹ and the kon [9] was 480000 M⁻¹ s⁻¹. It also gave a Kd [10] of 22 nM, a koff [10] of 0.011 s⁻¹ and a kon [10] of 430000 M⁻¹ s⁻¹.

For B3, the Kd [11] was 70 nM, the koff [11] was 0.002 s⁻¹ and the kon [11] was 29000 M⁻¹ s⁻¹. For the same binder, the Kd [12] was 35 nM, the koff [12] was 0.0049 s⁻¹ and the kon [12] was 140000 M⁻¹ s⁻¹. For the same binder, the Kd [13] was 70 nM, the koff [13] was 0.0023 s⁻¹ and the kon [13] was 29000 M⁻¹ s⁻¹. The Kd [14] was 35 nM, the koff [14] was 0.0049 s⁻¹ and the kon [14] was 140000 M⁻¹ s⁻¹.
